# Test results from the supplement of paper PMC12764529.
# ± gives the half width of the 95% confidence interval.
# Assay: folding stability dG unfold from chymotrypsin proteolysis; higher = more stable
# Summary of the method: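 Only designs with AlphaFold2 dimer inter-PAE above 15 were retained; each was a mini-protein under 80 residues with no cysteine, in a PA-tagged cDNA display construct. After digestion with trypsin and chymotrypsin and sequencing, K50 was inferred by Bayesian fitting of counts, and unfolding free energy was derived per protease or combined against a sequence-predicted unfolded-state K50 and a shared folded-state K50.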
row,Sequence,folding stability dG unfold [kJ/mol]
1,SAGGSAGGSMPPLAPDETVTQTLPSPDGSEVLVTYTWVPGEGLVETKVTDPATGKTTSTKTPVPSAGGSAGG [r6_440_JUSTAS],-2.18 ± 1.3
2,SAGGIEVDPEHKHVHIHIPNGNIPELLDLIEDAPGDHVSIHFYNPGNGKPRRFTMPRKEARKFLEQFSAGGS [r16_797_TrROS],3.49 ± 0.36
3,SAGGSVEIWILLPPNNPDLDKIREKLRDEPGIDDVNVKVVKPTPGYWVFEIEVNGDPEVADKIRDLISAGGS [r16_394_TrROS],6.72 ± 0.753
4,GKAEVVRVEYDPETGALRVVLRREGADVVLEVDPETGVARVYFPADPRVLEFEFDTLEEAVDAAVALLEAGS [r1_177_TrMRF],19.5 ± 0.586
5,SMKVVKLYTDPEGRVVIEITLPKPDGTPVSEEEAKAIADEIAAELKPKYPNATFEITYDPKTGVVTITIGSA [r9_485_JUSTAS],10.5 ± 0.222
6,SAGGMILEIEFPPELIEELLEKLKKEFPDVEVKPLKIEYDPETGLVKVPILVKTKNPEEVEKIKKLAASAGG [r13_539_TrMRF],11.6 ± 0.381
7,SATFTLPDGREVEVVSVEYDPETNTVTVLVRDRETGELYVFTFERLPDGEWRIVSRERVRVEPGETVLVSAG [r14_13_TrROS_Hall],13.53 ± 0.092
8,SAGGSAIKIIPNGDGIYIKIWFNNQPHPIPIESPEDAEEQVKSILDKFQKRNGMDIPEDMKVEIYPSAGGSA [r15_496_TrROS],4.71 ± 0.586
9,SAGGSAGGSAGMRIVLRLPRDVPLEALRRELEALGGEVRIETEDDPDGRLLFVVELRPKESAGGSAGGSAGG [r11_1050_TrMRF],7.57 ± 0.586
10,SADPNYHYKYKIKIEIAWFPPDDLEKLPPGMIMIPFDDHWIMIVIKLEPVEREPPPPPPEYDPETGDWKSAG [r14_126_TrROS],14.2 ± 0.711
11,SAGGSAGGSAKEIEVRVEKDEETGKYRVTIRVDGKEIEIEVDVPKTLEEAERKAKELLKELSAGGSAGGSAG [r3_104_TrROS_Hall],11.6 ± 0.146
12,SAGGSAKMTLIIKVSPEMTKEELEELARKLAEELNVKVEIEYDEETGLATVTIEKDGKKIEIIVERSAGGSA [r15_168_TrROS_Hall],11.4 ± 0.393
13,SETITLEIELPDGSKLTIEIPVEKIPGVDEYVVTVKITEYLPNGKPRSREFTFLAKSPEEAVEIALLAAGSA [r9_337_TrMRF],23.3 ± 0.669
14,SAGGESYPFIGRNPETNALIEVTVTKLESGEYLVNATITNPNGETVEFPFTFPANSLTPESEIDVTITSAGG [r13_959_TrMRF],5.05 ± 0.31
15,SAGGSAEVELVKVEVNPDGPYVKATFRIPGGGDVAVLVFDPDRPNTARLIVRPPNNEPIAEIELPLSAGGSA [r15_974_TrMRF],7.65 ± 1.17
16,SAGGSAGGSAMVVEVPVEFPDDVKVYSVEEDPELGVLLVKVKFPDREVLAVIPGDKLFIADASAGGSAGGSA [r18_212_TrMRF],1.36 ± 0.372

row,Sequence,folding stability dG unfold [kJ/mol]
1,SAGGMPEKVVVLRIRVTIRRDGEEEEIELEIRLPEEGQELTEEQLLALLRELLPPGYEIRRVEIEELSAGGS [r16_407_TrROS_Hall],19.89 ± 0.18
2,MTKKTVTLPIPEPIRAAIEAGKPLPLEEIVDLVRDVVAKELGFKDVKVLSVEIKPLPNGEIVVEVTVEFPES [r1_290_TrMRF],11.7 ± 0.669
3,SAGMEKAINLAKEYAKKLGLPLESINVTEIGNSVIIEMKIPEKGETITVNIPIHPDGTISLNIKFEKKKSAG [r5_888_JUSTAS],10.98 ± 0.0795
4,SMKKPIDLIKKLGYTLTSVTKLPNGTTLITFEHPDSTVTVTVNPDGNIKITTTNPKNGTTTTTTIPVNKLSA [r9_2_JUSTAS],9.67 ± 0.414
5,SAGGSAGGSAGGMTPEEIEALKARPLPDGSPILSIDREGNVYTITTARDPSVRTTVIPAESAGGSAGGSAGG [r7_995_JUSTAS],-3.57 ± 1.8
6,SAGGSAGGSAMKTLVIEGLSLEEIEELAKEIPGKTVRIVFKDGSVITIYPDGKIEIEPLPESAGGSAGGSAG [r3_269_TrROS_Hall],11 ± 0.13
7,SAGKMVKVEIVIDVPPEEITEEELKAILEEEAEEVEITFDEETGKITITVTVSEEEAEKLREALKELGASAG [r5_378_TrROS_Hall],4.34 ± 0.544
8,SAGGSAGGSAGGKKKKVIEIELKPGEKLTLEQIKEIAKKLNVKKVKVEKVDGKLKIVVESAGGSAGGSAGGS [r10_642_TrROS_Hall],3.73 ± 0.272
9,SAGGTIYIWFPMKVDEAVDLAKELAENKDWKIEIYNGGKEHEIELDKIEPVPPENVRVYIEIEPKPDSAGGS [r16_628_TrROS],6.88 ± 0.343
10,SAGSSLNILLELETPEEAEKEAARIKEEIPKKGISVTVTIVSKEELEKLLKENVIELPNGSLKLVLFPSAGG [r19_187_JUSTAS],0.577 ± 0.795
11,SAGGSAGGSANVKLKIDLDPGYGYIKIKLEWEDPGTGNKQEMEITIPIPIPPPPPPPANDKKSAGGSAGGSA [r18_361_TrROS],9.07 ± 0.46
12,SAGGSAGGSKKKVKVVKVEKPEGDYYVVTVYYEDGKLLKKVVFPKGVKPEEVLEKVKKLVEEESAGGSAGGS [r12_798_TrMRF],11.8 ± 0.205
13,SAGGSAGGSAGGKIENWKITKVETKLHPNGFPYLVIELSNEKKKIRVLIYPNGELKAFEESAGGSAGGSAGG [r7_675_TrMRF],17 ± 0.879
14,SAGGSAGGSMVPGKLLVTITDPNNGLTTTLDLPLEVKTEEDIEAEVQKIKEENPGKKVSVKLLSAGGSAGGS [r12_65_JUSTAS],7.058 ± 0.0544
15,SAGITILFNSAEDAENFAEELAEDYPNMNVTIKIHDPEHGEPVEIPVKIPPPPPKPKRDPDNGNKKYEGSAG [r5_870_TrROS],2.12 ± 0.222
16,SAGGSAGGSAGGPKLVLKIKTEIKIEKKLEFDPETGELTEEIEIEIKIEIELEPLPEGLSAGGSAGGSAGGS [r10_376_TrROS_Hall],13.6 ± 1.46
